Measurements reported in publication PMC7084690, “N-terminal Backbone Pairing Shifts in CCL5-^12AAA^14 Dimer Interface: Structural Significance of the FAY Sequence” (International Journal of Molecular Sciences, 2020).
Blank lines part the entries; values can stand above or below the binder they belong to.

Tests used:
[1] = biological target: T1, CCL5-F12A (human), P13501; experiment: NMR titration; pH titration followed by 1H,15N-HSQC; this point pH 3.2; 0.2 mM 15N-labelled protein, 25 mM sodium acetate, 150 mM NaCl, 10% D2O, 298 K; monomer to dimer; conditions: remark: other sources report otherwise
T1 chain: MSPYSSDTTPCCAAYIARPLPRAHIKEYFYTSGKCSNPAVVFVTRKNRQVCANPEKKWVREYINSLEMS

[2] = biological target: the molecule itself; experiment: NMR titration; pH titration followed by 1H,15N-HSQC; this point pH 5.0 (for the wild type maintained until pH 6.0); 0.2 mM 15N-labelled protein, 25 mM sodium acetate, 150 mM NaCl, 10% D2O, 298 K; dimers to soluble oligomers, read from the loss of resonance intensity
[3] = biological target: the molecule itself; experiment: NMR backbone relaxation (15N-R1, 15N-R2, 1H-15N NOE); pH 3.2, 298 K, 600 MHz, in the absence or presence of 180 mM ammonium sulfate; oligomeric state from R1, R2 and the R2/R1 ratio; monomer to dimer
[4] = biological target: the molecule itself; experiment: NMR titration; pH titration followed by 1H,15N-HSQC; this point pH 3.2; 0.2 mM 15N-labelled protein, 25 mM sodium acetate, 150 mM NaCl, 10% D2O, 298 K; monomer to dimer

stoichiometry N [1]: 2
B1: CCL5-F12A, P13501 24-91 (natural protein)
chain: MSPYSSDTTPCCAAYIARPLPRAHIKEYFYTSGKCSNPAVVFVTRKNRQVCANPEKKWVREYINSLEMS

B2: CCL5-Y14A (natural protein, human)
chain: MSPYSSDTTPCCFAAIARPLPRAHIKEYFYTSGKCSNPAVVFVTRKNRQVCANPEKKWVREYINSLEMS
notes: starting Met residue (M0) that precedes residues 1-68 of the mature CCL5; CCL5 (RANTES), human, residues 1-68 of the mature CCL5, with Y14A; numbers count on: the mature protein; 15N-labelled for the NMR experiments
binding result [2]: binds

B3: CCL5-12AAA14 (natural protein, human)
chain: MSPYSSDTTPCCAAAIARPLPRAHIKEYFYTSGKCSNPAVVFVTRKNRQVCANPEKKWVREYINSLEMS
notes: starting Met residue (M0) that precedes residues 1-68 of the mature CCL5; numbers count on: the mature protein; 15N- or 15N,13C-labelled for the NMR experiments; In the crystal the first five N-terminal residues were not modelled; also called 12AAA14 mutant
stoichiometry N [3]: 2

B4: human CC-type chemokine ligand 5 (CCL5) (natural protein)
chain: MSPYSSDTTPCCFAYIARPLPRAHIKEYFYTSGKCSNPAVVFVTRKNRQVCANPEKKWVREYINSLEMS
notes: starting Met residue (M0) that precedes residues 1-68 of the mature CCL5; CCL5 (RANTES), human, residues 1-68 of the mature CCL5; numbers count on: the mature protein; 15N-labelled for the NMR experiments; vector pET43.1a(+); also called RANTES; native CCL5
stoichiometry N [4]: 2
